Results on two molecules are retold here after patent US20180050011A1.

Where only a bound is given, the exact number is not on record here.

Test [1] deals with T1, S100A9 (human) (UniProt P06702).
T1 sequence (looked up): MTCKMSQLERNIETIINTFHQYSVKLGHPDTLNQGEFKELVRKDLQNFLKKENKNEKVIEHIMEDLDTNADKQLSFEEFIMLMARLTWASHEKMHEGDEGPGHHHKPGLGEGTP
As to the kind of experiment: cell-based or functional assay.

Test [2] has as its target apoptosis-associated speck-like protein containing a caspase-recruitment domain (ASC) (human) (UniProt Q9ULZ3). As to the kind of experiment: cell-based or functional assay.

apoptosis-associated speck-like protein containing a caspase-recruitment domain (ASC) (human), sequence (Q9ULZ3 whole entry, the tested form may be a part): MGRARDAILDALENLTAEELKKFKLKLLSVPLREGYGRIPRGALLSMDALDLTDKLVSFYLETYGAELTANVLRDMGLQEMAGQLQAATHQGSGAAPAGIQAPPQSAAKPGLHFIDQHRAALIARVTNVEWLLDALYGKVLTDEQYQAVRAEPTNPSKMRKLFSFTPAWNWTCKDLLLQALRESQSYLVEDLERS

Consider “S100A9 high-affinity chimeric (CD33-IgG1) decoy receptor (from UniProt P20138 18-259) (Fc fusion)”, for which, in test [1], the colony-forming capacity of MDS BM-MNC was less than 6.6 fold; the reduction of the fraction of pyroptotic cells, CD33+ cells (MDS BM-MNC in autologous BM plasma) is 68%; the reduction of the fraction of pyroptotic cells, CD71+ cells (MDS BM-MNC in autologous BM plasma) worked out at 64%; the reduction of the fraction of pyroptotic cells, progenitor cells (MDS BM-MNC in autologous BM plasma) stood at 23%. The molecule also registered a reduction of the fraction of pyroptotic cells, stem cells (MDS BM-MNC in autologous BM plasma) in test [1] of 44%.

B1: pyrin domain-only protein (POP)-1 (protein, UniProt Q8WXC3 1-89, looked up)
chain: MGTKREAILKVLENLTPEELKKFKMKLGTVPLREGFERIPRGALGQLDIVDLTDKLVASYYEDYAAELVVAVLRDMRMLEEAARLQRAA
As to B1, the NLRP3 activation, as measured by ASC oligomerization (flow cytometry, U2AF1-S34F cells transfected with POP-1) in test [2] worked out at 40 % reduction.
